Kd data for one molecule are collected here from PMC12916166 (The Journal of cell biology, 2025).

In this experiment the target is Aip5C-L (997–1234) (S. cerevisiae, UniProt P43597 997-1233). Nature of the experiment: fluorescence polarisation. For orientation: Polarisation of emitted light reports the rotation of a fluorescent probe.

Broadly, the Kd is the constant that tells how readily two partners part at equilibrium. Read a high Kd as a looser complex.

Sequence of Aip5C-L (997–1234) (P43597 997-1233): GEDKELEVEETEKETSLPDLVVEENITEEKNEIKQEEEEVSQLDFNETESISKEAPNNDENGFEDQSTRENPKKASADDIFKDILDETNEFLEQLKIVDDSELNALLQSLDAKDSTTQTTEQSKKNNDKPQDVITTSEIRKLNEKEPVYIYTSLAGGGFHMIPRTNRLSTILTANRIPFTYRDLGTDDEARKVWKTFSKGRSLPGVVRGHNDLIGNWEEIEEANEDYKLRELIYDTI

B1: Bud6 (1–145)-kCk-Alexa488 (domain or fragment, S. cerevisiae, UniProt P41697 1-145, looked up)
chain: MKMAVDDPTYGTPKIKRTASSSSSIETTVTKLLMSTKHLLQVLTQWSKGTTSGRLVSDAYVQLGNDFKVVSKFFMHAKVDMSDVGDVPMALRRVLEVTLREPPSDETLNKHLPKIREIIVTLLDKLKVKQAILKNMQQEHRISVK
modifications: Alexa488 maleimide on the single cysteine of the C-terminal KCK sequence
For B1, the affinity, expressed as Kd, was 85 nM.
